Measurements published in the supplement of paper PMC9170038.

Tested on: K4 kissing-loop RNA reporter
Assay: apparent KD of K4 kissing-loop reporter; higher = weaker reporter binding
Conditions: Eterna round: R107
Protocol: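 RNA-MaP round R107: designed RNA switches with theophylline, tryptophan, arginine or FMN aptamers are transcribed on-chip within common flanks. They are titrated with a labelled K4 kissing-loop RNA reporter in RNA-MaP buffer (100 mM Tris pH 7.5, 80 mM KCl, 4 mM MgCl2), without ligand or with the indicated ligand. Median apparent KD per design.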

[1] = input ligand: theophylline 20 uM
[2] = input ligand: tryptophan 2.4 mM
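Further: bound reporter read as fluorescence of individual clusters on recovered sequencing chips by microscopy, with normalized cluster intensities fitted with a binding model.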

Row | Sequence | apparent KD of K4 kissing-loop reporter (input ligand: FMN 200 uM) | apparent KD of K4 kissing-loop reporter (input ligand: arginine 13.2 mM) | apparent KD of K4 kissing-loop reporter (input ligand: none) | apparent KD of K4 kissing-loop reporter [1] | apparent KD of K4 kissing-loop reporter [2]
1 | CCCAAGGGCGAACCGGUAUGAUCGACGGAUACCAGAGGCGAAAGCCUCCCUUGGCAGCCGGCUGUAGUGAUGUUACACUGGUUCU | 139 nM | 98.9 nM | 168 nM | 186 nM | 143 nM
2 | CCCGGUCCACGAAGGAGCGCCGUGCAGUGAUGUUGCAGUUAGAUCCAGUGAUGUUUGGGCCGGCAGGUAGGUCGCGUGGCCCGGG [Excusion Arginine B GF 24] | 199 nM | 197 nM | 250 nM | 197 nM | 188 nM
3 | CCCUAAAUAUGCAGUGAUGUUGCAACUGAUACCAGUAUCGAAAGAUACCCUUGGCAGCGGAAAACCGCUACGUAAUUUAAUAGGG [Ex Theophylline A K4 20] | 294 nM | 393 nM | 387 nM | 402 nM | 285 nM
4 | CCCUCACGAGUGAUGUUCGUAGGGUACAGUCAGGAUAUCAUGCGGUUGAGAAGGGACAGAAAGGGCGGCCACGGGUUGCUCAUUU [Issogeso] | 200 nM | 352 nM | 343 nM | 492 nM | 530 nM
5 | CCCUCACGAGUGAUGUUCGUAGGGUACAGUCAGGAUAUCAUGCGGUUGAGAAGGGACAGAGAAGGCGGCCACGGGUUGCUUAUCU [Ussoat] | 215 nM | 258 nM | 342 nM | 388 nM | 308 nM
6 | CCGACUGCAGGAAGGAGCGGCGGUUGGAGUGAUGUUCCGGGUAGUGAUGUUACCAAACUCCGCCAGGUAGGUCGCCUGUUGCUCG [Same State Arginine B GF10] | 151 nM | 112 nM | 165 nM | 179 nM | 144 nM
7 | CCGAGCCUGACGUAAGUCAGGCUCUGCGAGCGAGGACCGGUACGGCCGCCACUCGGUGCAGUGAUGUUGCAUGGCCGCAAGGCCG [#2 Exclusion - Tryptophan A Attempt #23 (HarryS)] | 293 nM | 274 nM | 235 nM | 235 nM | 351 nM
8 | CCGCCGGUCGGAAGGAGCGCACGCCAGAGUGAUGUUCUGGCGCGGGCACUUUAUGCCCGCGUGCAGGUAGGUCGCCGAUUCUGGC [Mabema] | 464 nM | 426 nM | 445 nM | 446 nM | 417 nM
9 | CCGCCGGUCGGAAGGAGCGCACGCCAGAGUGAUGUUCUGGCGCGGGCAUUUUGUGCCCGCGUGCAGGUAGGUCGCCGAUUCUGGC [Quxeorti] | 602 nM | 414 nM | 427 nM | 452 nM | 498 nM
10 | CCGCUACCCUCAGGAUAUUAAAUAUUAGUGAUGUUAGUAAACCGAUGGCGAAAGCCAUCGGUAUGUUGAGAAGGGAGGGUAGCGG [whbob_SS_FMNB__2th197] | 403 nM | 1810 nM | 2240 nM | 891 nM | 880 nM
11 | CCGCUGCCCUCAGGAUAUUAAGUAUUAGUGAUGUUAGUAAACCGAUGGCGAAAGCCAUCGGUAUGUUGAGAAGGGAGGGUAGCGG [whbob_SS_FMNB__2th199] | 370 nM | 627 nM | 662 nM | 1140 nM | 550 nM
12 | CCGGGCGGCCGAAGGAGCGGGCGGACCCGAGUGAUGUUCGGGUGGACCGUGAGGUCCGGUGCCCAGGUAGGUCGCGGUUCCGCCC [#2 Same State - Arginine B Attempt #5 (HarryS)] | 117 nM | 123 nM | 129 nM | 118 nM | 120 nM
13 | CCUAGUCGGAUACUCAAUCCAAUGCGAGAUACCAGCGGUCUUACGCGCCCUUGGCAGCUCAUAAUGAUGAACCAGUGAUGUUGGG [theeternabot_sameState_KL_Theo_A_40] | 423 nM | 268 nM | 397 nM | 446 nM | 368 nM
14 | CCUAUCUCAUACGAUACCAGUCCGAGUGAUGUUCGAAAAUAAAUAAAUUUGCCAUAUAAUGACCCUUGGCAGCGUAUGGGAUAGG [Ex Theophylline B K4 11] | 354 nM | 296 nM | 351 nM | 400 nM | 300 nM
15 | CCUAUCUCAUACGAUACCAGUGAAUUAAUAUUUAUAAGCAGUGAUGUUGCAUUCCAAGUACACCCUUGGCAGCGUAUGGGAUAGG [Ex Theophylline B K4 20] | 147 nM | 151 nM | 151 nM | 159 nM | 120 nM
16 | CCUAUCUGUUACGAUACCAGUCAAAGAUAUUUUAUCAAUGCCCUCACCGAGUGAUGUUCGGACCCUUGGCAGCGUCUGGGAUAGG [pnnbmullin] | 187 nM | 138 nM | 185 nM | 119 nM | 150 nM
17 | CCUGAUCCUAGUGAUGUUAGGUCCAACGGCCGAGGACCGGUACGGCCGCCACUCGUCAAUUGGAAACAGCCCACGGGCACCGGGU [theeternabot_sameState_KL_Trp_A_19] | 825 nM | 502 nM | 906 nM | 814 nM | 783 nM
18 | CGAAAUAGAACGGCCGCCACUGUAAGUCCUGACAGUAAGUGAUGUUUGAAAGAUUCGGGUAUUCGCAGGACCGGGUUCGUCAUAA [theeternabot_sameState_KL_Trp_B_13] | 886 nM | 844 nM | 1260 nM | 759 nM | 754 nM
19 | CGAAGAGAGUGAUGUUCUCUAGGCAAAAGAAAGGAUAUAAUGUUUGUUAGAAGGUUCGGAAAAUGGAACGUCGGCCCGUACAACC [theeternabot_exclusion_KL_FMN_A_18] | 151 nM | 129 nM | 139 nM | 127 nM | 121 nM
20 | CGAGUGAUGUUCGAAGAGUUGUUAAGCGAUACCAGCUAGGAAACUGGCCCUUGGCAGCGUAAUAAGUUAAUAAAUAAAUGAUCAC [whbob_Ex_Theo_A_th64] | 376 nM | 411 nM | 360 nM | 449 nM | 301 nM
21 | CGAGUGAUGUUCGUUCGUUUAUUUCGUUGACAGGAUAUGCGGAAACGCAGAAGGGUCACCUUUGAGUUAACGGAAUUUACGUUAU [Ex FMN A 27] | 614 nM | 487 nM | 587 nM | 552 nM | 546 nM
22 | CGAGUGAUGUUCGUUCGUUUAUUUGGGUGACAGGAUAUGCGGAAACGCAGAAGGGUCACCUUCGGGUUACCCGAAUUAACGUUAU [#09 K4 FMN A Exclusion] | 724 nM | 520 nM | 688 nM | 587 nM | 717 nM
